The text below walks through data of patent US10662230B2, “Cyclic RGD cell-binding motif and uses thereof” (Spiber Technologies AB, priority 2015, dated 2020).

Assay [1] concerns Human dermal microvascular endothelial cells (EC). The assay can be described thus: Early attachment assay, endothelial cells on silk films. In kind it is cell-based. Particulars: 1 h adhesion to film. As to the method: Human dermal microvascular endothelial cells (EC), (HDMEC, PromoCell GmbH, Germany) isolated from dermis from adult donor were grown in culture flasks coated with gelatin (Sigma Aldrich) in complete endothelial cell media MV, containing 5% fetal bovine serum (PromoCell GmbH, Germany).
Cells were harvested at passage 3-8, seeded at 20 000/cm^2 and allowed to adhere to the films or controls for 1 h in a cell incubator before gentle washing twice with pre-warmed phosphate buffered saline (PBS) followed by 10 min fixation with 96% ethanol. After three washings in water, cells were stained for 30 min with 0.1% Crystal Violet in H2O. Plates were dried after extensive washing in water.
Attachment and morphology of cells bound to the films obtained in Example 3 were documented by taking micrographs at 2× and 10× magnification in an inverted bright field microscope. The color was then dissolved in 40 μL 20% acetic acid for 10 min, and 35 μL of the solution was transferred to a 384-well plate for optical density measurement at 595 nm (TECAN Infinite M200). Wells with cells fixed without pre-washing was used as positive control. Wells with no cells were used as blank. Experiments were run in hexaplicates and repeated three times.
First, we wanted to investigate how well adherent cells attach and spread on the FNCC-silk (FNCC-4RepCT, SEQ ID NO: 13) compared to linear RGD proteins (RGD-4RepCT, SEQ ID NO: 16) and WT silk proteins (4RepCT, SEQ ID NO: 2) obtained in Example 3. Silk films of the three different variants were prepared in cell culture plates, and human primary endothelial cells (EC), mesenchymal stem cells (MSC) or keratinocytes (KC) were allowed to adhere for 1 h before fixation and staining.

The test system of assay [2] is dermal keratinocytes (NHEK). Description: Repopulation assay (wound field). Type of assay: cell-based, human. The note with it: 0.9 mm wound field, 6 days of culture. The method, then:
To evaluate the ability of the different silk variants to support repopulation of an open would field, dermal keratinocytes (NHEK) were stained with Oregon green cell trace (Life Technologies) before seeded onto films of FNCC-silk (SEQ ID NO: 13) and WT-silk (SEQ ID NO: 2) at 20 000 cells/cm^2 in 24 well plates. Wound field inserts (CytoSelect™ Wound healing assay, Cell Biolabs) were added into the wells before cell seeding to generate a 0.9 mm wide open would field in the cell monolayer, while keeping the film intact. After 16 h the inserts were removed, and the repopulation process were followed each day and documented by inverted fluorescence microscopy at day 0 (insert removal), day 2 and 4. At day 6 cells were fixed and stained according to the assay protocol, and imaged by inverted bright field microscopy.
Thus, green-traced cells were seeded at high density into wells with inserts preventing cells to reach a defined part of the silk-film, the “wound field”. After monolayer formation outside the wound field, the insert was removed, and repopulation of the gap was documented during 6 days of culture, thus allowing both migration and proliferation of cells.

B1: FNCC-silk: recombinant spider silk protein 4RepCT with N-terminal cysteine-looped RGD motif CTGRGDSPAC (SEQ ID NO: 10) (protein)
chain: GPNSCTGRGDSPACGSASGQGGYGGLGQGGYGQGAGSSAAAAAAAAAAAAGGQGGQGQGGYGQGSGGSAAAAAAAAAAAAAAAGRGQGGYGQGSGGNAAAAAAAAAAAAAAAGQGGQGGYGRQSQGAGSAAAAAAAAAAAAAAGSGQGGYGGQGQGGYGQSSASASAAASAASTVANSVSRLSSPSAVSRVSSAVSSLVSNGQVNMAALPNIISNISSSVSASAPGASGCEVIVQALLEVITALVQIVSSSSVGYINPSAVNQITNVVANAMAQVMG
modifications: cyclic disulfide loop; Fusion protein; DISULFID (5)..(14)
Consider B1, for which, in assay [1] (crystal violet staining), the “attachment seen in micrographs” value was “clear improvement of attachment is seen on the FNCC films compared to both RGD and WT”. Moreover, the “OD of crystal violet dissolved from adhered cells (number of bound cells)” value in assay [1] (seeding 20 000/cm2) is recorded as “significantly more cells had bound to the FNCC-silk after 1 h compared to WT silk”; in assay [1] (seeding 20 000/cm2, listed as FNCC) it was “Significantly more EC had attached to FNCC also compared to RGD silk”. For the same molecule, the “repopulation of the wound field” value in assay [2] was “efficiently repopulated the wound field on FNCC-silk, which was almost completely covered with cells at the end of the experiment”.
